This note sets out measurements from the supplement of paper PMC10567573.

To fix the notation:
B1: MTMR15 (parent)
chain: YVKAKKSIDKDEEFAGSSPQSSKS
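Further: lentivirally expressed fusions sorted by FACS into six bins by GFP to DsRed ratio, PSI derived from sequencing read proportions per bin multiplied by bin number.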

This series covers variants of B1. The experiment in a line: protein stability index of a GFP-peptide fusion (GPS, HEK-293T) (PSI 1-6); higher = more stable. The note with it: c terminus: a fixed tail appended.
As for YVKAKMSIDKDEEFAGSSPQSSKS [K6M], the protein stability index turned out to be 3.16.
As to YVKAKCSIDKDEEFAGSSPQSSKS [K6C], the protein stability index turned out to be 2.54.
As to YVKAKESIDKDEEFAGSSPQSSKS [K6E], the protein stability index was 3.95.
Take YVKAKFSIDKDEEFAGSSPQSSKS [K6F]: the protein stability index stood at 3.02.
For YVKAKDSIDKDEEFAGSSPQSSKS [K6D] the value was 3.87; for YVKAKGSIDKDEEFAGSSPQSSKS [K6G], 3.15.
Consider YVKAKISIDKDEEFAGSSPQSSKS [K6I], for which the protein stability index was found to be 2.67.
As for YVKAKLSIDKDEEFAGSSPQSSKS [K6L], the protein stability index worked out at 2.55.
For the variant YVKAKHSIDKDEEFAGSSPQSSKS [K6H], the protein stability index was found to be 3.26.
For the variant YVKAKASIDKDEEFAGSSPQSSKS [K6A], the protein stability index came out at 2.98.
As for YRKAKKSIDKDEEFAGSSPQSSKS [V2R], the protein stability index is 5.42.
For YSKAKKSIDKDEEFAGSSPQSSKS [V2S], the protein stability index worked out at 5.38.
For YHKAKKSIDKDEEFAGSSPQSSKS [V2H], the protein stability index is 4.49.
As to YNKAKKSIDKDEEFAGSSPQSSKS [V2N], the protein stability index is 5.16.
For YLKAKKSIDKDEEFAGSSPQSSKS [V2L] the value was 4.84.
Turning to YAKAKKSIDKDEEFAGSSPQSSKS [V2A], the protein stability index was 5.13.
In the case of YTKAKKSIDKDEEFAGSSPQSSKS [V2T], the protein stability index worked out at 5.08.
In the case of YMKAKKSIDKDEEFAGSSPQSSKS [V2M], the protein stability index was 4.91.
On to YIKAKKSIDKDEEFAGSSPQSSKS [V2I], for which the protein stability index is 4.23.
Take YYKAKKSIDKDEEFAGSSPQSSKS [V2Y]: the protein stability index is 5.39.
To YQKAKKSIDKDEEFAGSSPQSSKS [V2Q] belongs 5.09.
To YPKAKKSIDKDEEFAGSSPQSSKS [V2P] belongs 4.76; to YEKAKKSIDKDEEFAGSSPQSSKS [V2E], 5.56.
On to YGKAKKSIDKDEEFAGSSPQSSKS [V2G], for which the protein stability index is 5.2.
As for YCKAKKSIDKDEEFAGSSPQSSKS [V2C], the protein stability index was 4.52.
Take YFKAKKSIDKDEEFAGSSPQSSKS [V2F]: the protein stability index came to 4.74.
To YDKAKKSIDKDEEFAGSSPQSSKS [V2D] belongs 5.5.
As to YKKAKKSIDKDEEFAGSSPQSSKS [V2K], the protein stability index came to 5.26.
YWKAKKSIDKDEEFAGSSPQSSKS [V2W]: the protein stability index was determined as 4.5.
For the variant YVMAKKSIDKDEEFAGSSPQSSKS [K3M], the protein stability index was 3.28.
For YVAAKKSIDKDEEFAGSSPQSSKS [K3A], the protein stability index came out at 2.87.
YVTAKKSIDKDEEFAGSSPQSSKS [K3T]: the protein stability index came out at 2.84.
Regarding YVFAKKSIDKDEEFAGSSPQSSKS [K3F], the protein stability index was found to be 3.3.
For the variant YVWAKKSIDKDEEFAGSSPQSSKS [K3W], the protein stability index is 3.1.
With YVEAKKSIDKDEEFAGSSPQSSKS [K3E], the protein stability index is 3.48.
Consider YVIAKKSIDKDEEFAGSSPQSSKS [K3I], for which the protein stability index amounted to 3.38.
For the variant YVRAKKSIDKDEEFAGSSPQSSKS [K3R], the protein stability index stood at 2.4.
For YVVAKKSIDKDEEFAGSSPQSSKS [K3V] the value was 3.85; for YVNAKKSIDKDEEFAGSSPQSSKS [K3N], 3.52.
For the variant YVQAKKSIDKDEEFAGSSPQSSKS [K3Q], the protein stability index came to 3.31.
Consider YVHAKKSIDKDEEFAGSSPQSSKS [K3H], for which the protein stability index worked out at 3.22.
For YVSAKKSIDKDEEFAGSSPQSSKS [K3S] the value was 2.76; for YVPAKKSIDKDEEFAGSSPQSSKS [K3P], 2.04.
As for YVCAKKSIDKDEEFAGSSPQSSKS [K3C], the protein stability index turned out to be 3.3.
With YVDAKKSIDKDEEFAGSSPQSSKS [K3D], the protein stability index was determined as 3.96.
As for YVLAKKSIDKDEEFAGSSPQSSKS [K3L], the protein stability index amounted to 3.05.
YVGAKKSIDKDEEFAGSSPQSSKS [K3G]: the protein stability index is 2.27.
In the case of YVYAKKSIDKDEEFAGSSPQSSKS [K3Y], the protein stability index amounted to 2.61.
On to YVKAMKSIDKDEEFAGSSPQSSKS [K5M], for which the protein stability index amounted to 2.6.
As to YVKAPKSIDKDEEFAGSSPQSSKS [K5P], the protein stability index worked out at 2.31.
Consider YVKAAKSIDKDEEFAGSSPQSSKS [K5A], for which the protein stability index was found to be 3.
YVKALKSIDKDEEFAGSSPQSSKS [K5L]: the protein stability index was found to be 2.15.
As for YVKAGKSIDKDEEFAGSSPQSSKS [K5G], the protein stability index was found to be 2.9.
To YVKAWKSIDKDEEFAGSSPQSSKS [K5W] belongs 1.6.
As for YVKASKSIDKDEEFAGSSPQSSKS [K5S], the protein stability index turned out to be 3.12.
As to YVKADKSIDKDEEFAGSSPQSSKS [K5D], the protein stability index came out at 4.22.
For the variant YVKATKSIDKDEEFAGSSPQSSKS [K5T], the protein stability index was 3.31.
For the variant YVKAYKSIDKDEEFAGSSPQSSKS [K5Y], the protein stability index was 2.07.
Turning to YVKAHKSIDKDEEFAGSSPQSSKS [K5H], the protein stability index was 2.8.
YVKARKSIDKDEEFAGSSPQSSKS [K5R]: the protein stability index was found to be 2.73.
As for YVKAVKSIDKDEEFAGSSPQSSKS [K5V], the protein stability index was determined as 3.47.
Regarding YVKAQKSIDKDEEFAGSSPQSSKS [K5Q], the protein stability index was 3.83.
In the case of YVKACKSIDKDEEFAGSSPQSSKS [K5C], the protein stability index is 2.74.
On to YVKAIKSIDKDEEFAGSSPQSSKS [K5I], for which the protein stability index came to 2.29.
For YVKANKSIDKDEEFAGSSPQSSKS [K5N] the value was 3.62; for YVKAFKSIDKDEEFAGSSPQSSKS [K5F], 2.44; for YVKAEKSIDKDEEFAGSSPQSSKS [K5E], 4.21.
TVKAKKSIDKDEEFAGSSPQSSKS [Y1T]: the protein stability index worked out at 5.69.
To NVKAKKSIDKDEEFAGSSPQSSKS [Y1N] belongs 5.4; to WVKAKKSIDKDEEFAGSSPQSSKS [Y1W], 4.66; to RVKAKKSIDKDEEFAGSSPQSSKS [Y1R], 5.62.
Consider PVKAKKSIDKDEEFAGSSPQSSKS [Y1P], for which the protein stability index was 5.19.
To QVKAKKSIDKDEEFAGSSPQSSKS [Y1Q] belongs 5.48.
As for VVKAKKSIDKDEEFAGSSPQSSKS [Y1V], the protein stability index amounted to 5.29.
For SVKAKKSIDKDEEFAGSSPQSSKS [Y1S] the value was 5.49.
On to YVKDKKSIDKDEEFAGSSPQSSKS [A4D], for which the protein stability index came out at 3.27.
Take YVKTKKSIDKDEEFAGSSPQSSKS [A4T]: the protein stability index came to 2.39.
For YVKIKKSIDKDEEFAGSSPQSSKS [A4I], the protein stability index was 3.24.
For YVKRKKSIDKDEEFAGSSPQSSKS [A4R] the value was 3.32.
Regarding YVKVKKSIDKDEEFAGSSPQSSKS [A4V], the protein stability index worked out at 3.08.
Take YVKSKKSIDKDEEFAGSSPQSSKS [A4S]: the protein stability index amounted to 2.45.
As to YVKWKKSIDKDEEFAGSSPQSSKS [A4W], the protein stability index was found to be 1.8.
Consider YVKFKKSIDKDEEFAGSSPQSSKS [A4F], for which the protein stability index worked out at 2.89.
To YVKLKKSIDKDEEFAGSSPQSSKS [A4L] belongs 3.04; to YVKHKKSIDKDEEFAGSSPQSSKS [A4H], 3.51.
YVKMKKSIDKDEEFAGSSPQSSKS [A4M]: the protein stability index was 3.31.
To YVKPKKSIDKDEEFAGSSPQSSKS [A4P] belongs 3.19; to YVKGKKSIDKDEEFAGSSPQSSKS [A4G], 3.42.
Take YVKYKKSIDKDEEFAGSSPQSSKS [A4Y]: the protein stability index came to 3.55.
For the variant YVKNKKSIDKDEEFAGSSPQSSKS [A4N], the protein stability index turned out to be 2.99.
Regarding YVKCKKSIDKDEEFAGSSPQSSKS [A4C], the protein stability index was 2.97.
In the case of YVKKKKSIDKDEEFAGSSPQSSKS [A4K], the protein stability index was determined as 4.12.
As for YVKQKKSIDKDEEFAGSSPQSSKS [A4Q], the protein stability index is 3.41.
To YVKEKKSIDKDEEFAGSSPQSSKS [A4E] belongs 3.54.
